Measurements from IntAct's records for PubMed 7518772.

B1: Receptor-type tyrosine-protein phosphatase alpha (Mus musculus), P18052 (parent)
chain: MDSWFILVLFGSGLIHVSANNATTVSPSLGTTRLIKTSTTELAKEENKTSNSTSSVISLSVAPTFSPNLTLEPTYVTTVNSSHSDNGTRRAASTESGGTTISPNGSWLIENQFTDAITEPWEGNSSTAATTPETFPPADETPIIAVMVALSSLLVIVFIIIVLYMLRFKKYKQAGSHSNSFRLSNGRTEDVEPQSVPLLARSPSTNRKYPPLPVDKLEEEINRRMADDNKLFREEFNALPACPIQATCEAASKEENKEKNRYVNILPFLSLAVSKDAVKALNKTTPLLERRFIGKSNSRGCLSDDHSRVHLTPVEGVPDSDYINASFINGYQEKNKFIAAQGPKEETVNDFWRMIWEQNTATIVMVTNLKERKECKCAQYWPDQGCWTYGNVRVSVEDVTVLVDYTVRKFCIQQVGDVTNRKPQRLITQFHFTSWPDFGVPFTPIGMLKFLKKVKACNPQYAGAIVVHCSAGVGRTGTFVVIDAMLDMMHSERKVDVYGFVSRIRAQRCQMVQTDMQYVFIYQALLEHYLYGDTELEVTSLETHLQKIYNKIPGTSNNGLEEEFKKLTSIKIQNDKMRTGNLPANMKKNRVLQIIPYEFNRVIIPVKRGEENTDYVNASFIDGYRQKDSYIASQGPLLHTIEDFWRMIWEWKSCSIVMLTELEERGQEKCAQYWPSDGLVSYGDITVELKKEEECESYTVRDLLVTNTRENKSRQIRQFHFHGWPEVGIPSDGKGMINIIAAVQKQQQQSGNHPITVHCSAGAGRTGTFCALSTVLERVKAEGILDVFQTVKSLRLQRPHMVQTLEQYEFCYKVVQEYIDAFSDYANFK

Variants of: B1
Conditions: with src_mouse Src

Row | effect of a mutation on the interaction | Variant
1 | disrupting interaction | Y825F
